For one substance, microtubule-gliding speed of HsKHC-MDN (L2-CaKip3) relative to HsKHC-MDN (taxol-stabilised microtubules), microtubule-stimulated ATP turnover and fold greater affinity than HsKHC-MDN results are on record in paper PMC9300613.

The target in assay [1] is bovine brain αβ-tubulin (taxol-stabilised microtubules, dolastatin-induced rings or DARPin-capped free dimer for biochemical assays) (bovine) (UniProt Q6B856).
Assay [2] shares this target. The assay is described as follows: co-sedimentation; 1 μM kinesin with 0-10 μM taxol-stabilised microtubules, BRB80 + 100 mM KCl, 2 mM AMP-PNP, 20 μM taxol, 20 min at 25 °C; pellet and supernatant by SDS-PAGE; Kd from a quadratic fit.

For “HsKHC-MDN_(L2-CaKip3) (HsKHC-MDN with loop-2 IASK, I41-K44, replaced by CaKip3 loop-2 F116-H144) (from UniProt P33176;A0A1D8PKA4) (domain or fragment)”, in assay [1], the microtubule-gliding speed of HsKHC-MDN (L2-CaKip3) relative to HsKHC-MDN (taxol-stabilised microtubules) is 2 fold and the microtubule-stimulated ATP turnover at steady state, relative to HsKHC-MDN was 2 fold. For the same substance, the fold greater affinity than HsKHC-MDN in assay [2] worked out at 7 fold.
